Positions count from the first letter of the chain named.
B1: RUPA-51 (antibody, V domains shown)
VH: QVQLVQPGAEVKKPGASVKVSCKASGYIFSTYGISWVRQAPGQGLEWMGWTSSYSDDTNYAQKFQDRVTMTTDTSTSTAYMELRSLRSDDTAVYYCARGGDRGDGPRFYYYGLDVWGQGTTVTVSS
VL: EIVLTQSPGTLSLSPGERATLSCRASQSLYNSYLAWYQQKPGQAPRLLIYGASSRATGIPGRFSGSGSGTDFSLTISRLEPEDFAVYYCSLYGRSSWTFGQGTKVEIK
notes: human IgG1; source: recombinant human IgG1, 293T (Protein A purified) or GenScript
B2: RUPA-48 (antibody, V domains shown)
VH: EVQLVESGGGLVQPGRSLRLSCAASGFSFDDHAMHWVRQAPGKGLEWVSGISWNSGNIGYADSVKGRFTISRDNAKNSLYLQMNSLRPEDTALYHCAKDGGYCSGIRCYHLRGMDVWGQGTTVTVSS
VL: EIVLTQSPATLSLSPGERATLSCRASQSVTNYLAWYQQKPGQAPRLLIYDASNRATGIPARFSGSGSGTDFTLTISSLEPEDFGVYYCQQRSSWPPYTFGQGTKLEIK
notes: as for B1
B3: RUPA-67 (antibody, V domains shown)
VH: QVQLLESGPGLVKPSETLSLTCTVSGASISTSYWSWIRQPAGKGLEWIGRFHISESSNYNPSLKSRLTLSADTSKNQVSLRLSSVTAADTAVYYCARDVSPEECVSTKCYRRPGYMDVWGKGTSVTVSS
VL: DIQMTQSPSSLSASVGDRVTITCRASQSIRNYLNWYLQKPGKAPKLLIFGASSLQSGVPSRFSGSGSGTDFTLTISSLLPEDFATYYCQQSYTTPRTFGQGTKVEIK
notes: as for B1
B4: RUPA-114 (antibody, V domains shown)
VH: QVYLVQSGAEVKKPGASVKVSCKASGYDFTSYGIAWVRQAPGQGLEWMGWIGGYDDKTDYAQNLQGRFTVTTDTSTSTAYMELRSLKSDDTAVYYCARGGDRGDGLRFYYFALDVWGQGTTVTVSS
VL: B1 VL with E1D, T5A, R18G, L29I, Q39H, G61D, S73T, S90Q
notes: as for B1
B5: RUPA-116 (antibody, V domains shown)
VH: QVQLQQWGAGLLKPSETLSLTCVVYGGSFSDYYWSWVRQPPGKGLEWIGEVNHSGTTNYNPSLKSRLTISVDTSKNQISLRLNSLTAADTAVYYCARRSSGYYRQSRYTGWFDPWGRGTLVTVSS
VL: EIVMTQSPATLSVSPGERATLSCRASQSITSNLAWYQQKPGQAPRLLIYGASTRATGIPARFSGSGSGTEFTLTISSLQSDDFALYYCQQYNNWPGLTFGGGTKVEIK
notes: as for B1
B6: RUPA-94 (antibody, V domains shown)
VH: QVQLRESGPGLVKPSETLSLTCSVSGGSITSSPYYWAWIRQPPGKGLEWIGSIYYSGGAYYNPSLKSRVTMSVDTSKNQFSLKVNSVTAADTAVYYCARRPNPGFWGGGYYFDYWGQGTLVTVSS
VL: QSALTQPASVSGSPGQSITISCTGSSSDVGSYNLVSWYQHHPGKAPKLMISEVSKRPSGVSDRFSGSKSGNTASLTISGLQAEDEADYYCCSYADSSTRNYVFGTGTKVTVL
notes: as for B1
B7: RUPA-158 (antibody, V domains shown)
VH: B1 VH with D89G, F108Y
VL: B1 VL with G9S
notes: as for B1
B8: RUPA-141 (antibody, V domains shown)
VH: EVQLVESGGGLVQPGESLRLSCAASGFTFNTYWMTWVRQAPGKGLEWVANINQDGSQKNYVDSVKGRFTVSRDNAKKSLFLQMNSLRAEDTAVYYCARDNGARYSGVWYDGWYDAFDIWGRGTVLTVSS
VL: AIQMTQSPSSLSASVGDRVTITCRASQGIKNDLGWYQQKTGKAPKLLIYAASSLQSGVPSRFSGSGSGTDFTLTISSLQPEDFATYYCLQDYNYPRTFGQGTKVEIK
notes: source: recombinant human IgG1, 293T (Protein A purified) or GenScript

target: T1, recombinant full-length Pfs48/45 (Plasmodium falciparum 3D7, UniProt Q8I6T1); assay: ELISA; conditions: both partners purified
T1 sequence (Q8I6T1 28-428): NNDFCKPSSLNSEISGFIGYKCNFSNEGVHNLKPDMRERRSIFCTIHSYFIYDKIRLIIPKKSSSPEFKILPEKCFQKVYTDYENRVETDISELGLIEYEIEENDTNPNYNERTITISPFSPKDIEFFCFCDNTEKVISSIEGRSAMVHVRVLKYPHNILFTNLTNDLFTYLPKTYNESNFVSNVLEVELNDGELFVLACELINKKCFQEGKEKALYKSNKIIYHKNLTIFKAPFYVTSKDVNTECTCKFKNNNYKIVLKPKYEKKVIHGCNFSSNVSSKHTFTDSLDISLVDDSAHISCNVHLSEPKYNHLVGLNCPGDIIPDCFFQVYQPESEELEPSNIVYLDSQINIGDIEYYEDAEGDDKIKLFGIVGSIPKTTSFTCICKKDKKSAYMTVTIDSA

Binder | binding result
B1 | binds
B2 | binds
B3 | binds

target: Pfs48/45 D1-2 (Plasmodium falciparum 3D7, UniProt Q8I6T1); assay: ELISA; conditions: both partners purified
Sequence (Q8I6T1 28-289): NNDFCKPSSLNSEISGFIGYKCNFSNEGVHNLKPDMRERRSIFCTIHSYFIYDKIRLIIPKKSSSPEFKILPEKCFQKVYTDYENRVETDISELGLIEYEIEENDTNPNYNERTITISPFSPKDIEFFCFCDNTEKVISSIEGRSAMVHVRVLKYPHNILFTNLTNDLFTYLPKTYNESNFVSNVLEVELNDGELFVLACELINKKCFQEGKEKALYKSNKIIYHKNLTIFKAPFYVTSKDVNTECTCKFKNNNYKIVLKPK

Binder | binding result
B4 | binds
B5 | binds
B6 | binds

target: T1, recombinant full-length Pfs48/45; assay: ELISA; conditions: both partners purified; remark: another data set of the same source

Binder | binding result
B4 | binds
B7 | binds
B8 | binds
B5 | binds
B6 | binds
